Values of other authors as cited in publication PMC5705969.

How the values were obtained:
Kv1.3 = Kv1.3 (UniProt P22001)
Kv1.1 = Kv1.1 (UniProt Q09470)
Kv1.2 = Kv1.2 (UniProt P16389)
UniProt P16389, sequence (P16389 whole entry): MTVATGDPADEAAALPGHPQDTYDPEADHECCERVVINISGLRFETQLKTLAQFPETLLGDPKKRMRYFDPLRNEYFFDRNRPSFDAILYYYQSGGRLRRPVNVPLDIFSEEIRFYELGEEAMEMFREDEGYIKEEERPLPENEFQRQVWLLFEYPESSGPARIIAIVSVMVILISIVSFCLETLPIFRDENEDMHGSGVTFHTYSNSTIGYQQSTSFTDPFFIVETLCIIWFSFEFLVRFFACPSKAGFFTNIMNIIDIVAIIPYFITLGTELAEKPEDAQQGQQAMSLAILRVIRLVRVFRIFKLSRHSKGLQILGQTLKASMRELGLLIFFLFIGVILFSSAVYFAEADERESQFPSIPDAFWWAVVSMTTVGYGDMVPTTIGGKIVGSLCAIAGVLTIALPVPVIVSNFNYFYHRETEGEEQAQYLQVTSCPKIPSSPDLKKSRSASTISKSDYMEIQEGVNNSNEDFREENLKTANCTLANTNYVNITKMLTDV

UniProt P22001, sequence (P22001 whole entry): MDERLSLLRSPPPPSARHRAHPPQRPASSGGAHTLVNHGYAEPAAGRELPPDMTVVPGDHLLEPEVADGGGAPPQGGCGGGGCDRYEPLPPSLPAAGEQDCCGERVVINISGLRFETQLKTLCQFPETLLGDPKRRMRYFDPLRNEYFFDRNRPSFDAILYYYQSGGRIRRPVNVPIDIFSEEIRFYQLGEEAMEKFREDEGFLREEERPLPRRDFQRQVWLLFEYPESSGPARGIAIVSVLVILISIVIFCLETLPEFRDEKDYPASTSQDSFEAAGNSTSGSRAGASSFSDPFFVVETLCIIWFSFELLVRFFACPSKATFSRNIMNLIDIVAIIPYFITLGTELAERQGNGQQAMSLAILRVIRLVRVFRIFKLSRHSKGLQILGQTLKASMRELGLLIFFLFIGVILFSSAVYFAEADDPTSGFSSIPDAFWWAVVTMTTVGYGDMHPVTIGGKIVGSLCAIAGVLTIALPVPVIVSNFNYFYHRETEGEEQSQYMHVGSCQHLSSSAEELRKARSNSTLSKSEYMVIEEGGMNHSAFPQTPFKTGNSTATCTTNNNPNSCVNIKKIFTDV
UniProt Q09470, sequence (Q09470 whole entry): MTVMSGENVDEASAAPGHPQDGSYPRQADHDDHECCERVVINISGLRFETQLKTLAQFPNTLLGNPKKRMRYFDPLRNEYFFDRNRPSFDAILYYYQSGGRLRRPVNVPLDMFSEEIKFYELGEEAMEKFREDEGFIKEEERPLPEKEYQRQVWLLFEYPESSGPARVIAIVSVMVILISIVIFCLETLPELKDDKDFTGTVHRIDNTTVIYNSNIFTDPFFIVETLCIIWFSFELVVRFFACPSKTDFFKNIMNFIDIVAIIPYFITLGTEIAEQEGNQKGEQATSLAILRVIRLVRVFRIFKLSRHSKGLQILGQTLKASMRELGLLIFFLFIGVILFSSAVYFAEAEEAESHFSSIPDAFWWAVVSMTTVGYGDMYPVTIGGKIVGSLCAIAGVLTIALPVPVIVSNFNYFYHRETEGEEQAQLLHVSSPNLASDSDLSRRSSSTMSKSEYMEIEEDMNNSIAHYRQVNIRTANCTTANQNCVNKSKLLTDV

Q: Which Kd (Kv1.3) does the source give for AgTx-2 (from UniProt P46111) here?
A: 0.05 nM

Q: What about the Kd (Kv1.1) of the same substance?
A: 0.13 nM

Q: And the Kd (Kv1.2)?
A: 3.4 nM
